Data reported in patent publication US20220144895A1, “DE NOVO DESIGN OF TUNABLE PH-DRIVEN CONFORMATIONAL SWITCHES” (University of Washington, priority 2019, published 2022).
Entries after “also recorded” stand apart in the source; their conditions may differ.

Experiments:
[1] = tested on: U2-OS cells; conditions: Bafilomycin A 1 μM, Chloroquine 50 μM as controls; cited from earlier work
[2] = Native mass spectrometry of pH-induced changes in oligomeric state; format: physicochemical; conditions: native MS
Method: Samples were buffer exchanged twice into 200 mM ammonium acetate (NH4Ac; MilliporeSigma) using Micro Bio-Spin P-6 columns (Bio-Rad). Protein concentrations were determined by UV absorbance using a Nanodrop 2000c spectrophotometer (Thermo Fisher Scientific) and diluted to make up a 10-fold stock solution (50 μM and 16.7 μM monomer and trimer concentration, respectively). 1 μL of this solution was mixed with 9 μL 200 mM NH4Ac/50 mM triethylammonium acetate (TEAA; MilliporeSigma), adjusted with acetic acid (Fisher Scientific) to obtain the desired final pH and incubated on ice for 30 min. […] 5 μL samples were filled into an in-house pulled glass capillary and ionized by nESI at a monomer or a trimer concentration of 5 μM or 1.67 μM respectively. All pH titration data were acquired on an in-house modified SYNAPT® G2 HDMS (Waters Corporation) with a surface-induced dissociation (SID) device incorporated between a truncated trap traveling wave ion guide and the ion mobility cell (39). The following instrument parameters were used spray voltage 0.9-1.3 kV; sampling cone, 20 V; extraction cone, 2 V; source temperature, room temperature; trap gas flow, 4 mL/min; trap bins, 45V. The data were processed with MassLynx™ v4.1 and DriftScope™ v2.1. For relative quantification, charge state series were extracted from DriftScope™, and smoothed spectra (mean; window 20; number of smooths 20) were integrated.
Python scripts were written to generate theoretical models according Equation 1, and curve-fitting to native mass spectrometry data (FIGS. 1, 3, 5) according to Equation 2 by nonlinear least squares using curve fit from scipy.optimize. The free energy estimates for individual n, m, and l layers used in Equation 1 modeling were estimated by solving linear equations as follows: values for the free energy of folding for designs pRO-2 and variants were estimated from GdmCl denaturation experiments (FIG. 11); each of these designs have different numbers of n, m, and l layers, thus series of linear equations relating the number of each layer type to the total free energies of folding were solved to estimate dG values of the individual layers of each type.

[3] = Size-exclusion chromatography (SEC); format: physicochemical; conditions: high concentration
Method: Cells were lysed by microfluidization in the presence of 1 mM PMSF. Lysates were clarified by centrifugation at 24,000 ref at 4° C. for at least 30 minutes. Proteins were purified by Immobilized metal affinity chromatography (IMAC): supernatant was applied to Ni-NTA (Qiagen) columns pre-equilibrated in lysis buffer. The column was washed twice with 15 column volumes (CV) of wash buffer (25 mM Tris pH 8.0 at room temperature, 300 mM NaCl, 40 mM Imidazole), followed by 3-5 CV of high-salt wash buffer (25 mM Tris pH 8.0 at room temperature, 1 M NaCl, 40 mM Imidazole) then an additional 15 CV of wash buffer. Protein was eluted with 250 mM Imidazole, and buffer-exchanged into 25 mM Tris pH 8.0 and 150 mM NaCl without imidazole for cleavage of the N-terminal hexahistidine tag by purified hexahistidine-tagged TEV protease (with the exception of design pRO-1, which was cleaved using restriction grade thrombin (EMD Millipore 69671-3) at room temperature for 4 hours or overnight, using a 1:3000 dilution of enzyme into sample solution). A second Ni-NTA step was used to remove hexahistidine tag, uncleaved sample and the hexahistidine-tagged TEV protease, and the cleaved proteins were then […], 150 mM NaCl, and 2% glycerol.

[4] = Fluorescence dequenching liposome leakage (liposome disruption) assay; format: biochemical; conditions: pH 5, 2.5 μM protein
Method: Liposomes composed of DOPC (1,2-dioleoyl-sn-glycero-3-phosphocholine), DOPC with 25% cholesterol (molar ratio to DOPC), 3:1 DOPC:POPS (1-palmitoyl-2-oleoyl-sn-glycero-3-phospho-L-serine), and 3:1 DOPC:POPS with 25% cholesterol were prepared identically to a final concentration of 5 mM total lipid as previously described (32); lipids from Avanti Polar Lipids. Lipids solubilized in chloroform were dried under nitrogen gas and stored under vacuum for a minimum of 2 hours to remove residual solvent. The dried lipid film was the resuspended in Tris buffer (10 mM Tris, 150 mM NaCl, and 0.02% NaN3 pH 8.0) containing 25 mM Sulforhodamine B (SRB) fluorophore (Sigma) and subjected to 10 sequential freeze thaw cycles in liquid nitrogen. Liposomes were extruded 29 times through 100 nm pore size polycarbonate filters (Avanti Polar Lipids) and purified from free fluorophore using a PD-10 gel filtration column (GE Healthcare) into storage buffer (10 mM Tris, 150 mM NaCl, and 0.02% NaN3 pH 8.0). Liposome size and homogeneity was analyzed by dynamic light scattering (DLS) using a Dynapro Nanostar™ DLS (Wyatt Technologies). On average liposome diameter ranged from 120-130 nm with low polydispersity. Liposomes were stored at 4° C. and used within 5 days of preparation.
Liposome disruption and content leakage was analyzed by fluorescence spectroscopy as previously described (32). […] The solution was rapidly acidified to the target pH by addition of a fixed volume of acidification buffer and incubated for 20 minutes. […] SRB fluorescence is independent of pH within the ranges used here. Finally. Triton X-100 (Sigma) was added to a final concentration of 1% to fully disrupt liposomes. Liposome disruption as indicated by content leakage and SRB dequenching was normalized using the formula [Fω−F(0)]/[F(Max)−F(0)] where F(0) is the average fluorescence intensity before acidification and F(Max) is the average fluorescence intensity ater addition of Triton X-100. All measurements were collected on a Varian Cary Eclipse spectrophotometer using an excitation/emission pairing of […] and 2.5 nm slit widths at 24° C. Any data plotted together was collected using the sum batch of liposomes.

[5] = Cryo-electron microscopy and tomography of proteins with DOPC liposomes; conditions: gold-nanoparticle conjugates, pH 5 and pH 8
Method: The conjugation reactions were performed immediately prior to use for electron microscopy imaging. […] The grids were prepared using a Vitrobot Mark IV (FEI) at 4 C and 100% humidity before being plunge-frozen in ethane cooled with liquid nitrogen.
Electron micrographs were collected using a Tecnai G2 Spirit™ Transmission Electron Microscope (FEI) operated at 120 kV and equipped with a 4k×4k Gatan Ultrascan CCD camera at a nominal magnification of 26,000× or a Tecnai TF-20 Transmission Electron Microscope (FEI) operated at 200 kV equipped with a K2 Summit Direct Electron Detector (Gatan).
Projection micrographs collected on the TF-20 were captured with the detector operating in counting mode. Specimens were imaged at 14,500 magnification, giving a pixel size of 0.254 nm, with a dose of ˜18e−/Å^2 across 75 200 ms movie frames. Data were collected in a semi-automated fashion using Leginon™ (49) and micrograph movie frames were aligned using MotionCor2™ (50). Leginon™ was used to collect tomography tilt series from −48 to +48 degrees bidirectionally in 3 degree increments with a total accumulated dose of ˜100 e−/Å^2. Reconstructions were processed using etomo in the IMOD™ software suite (31) with CTF parameters estimated from CTFFIND4™ (52). Reconstructed tomograms were visualized and measurements were made using ImageJ™ (53).

[6] = tested on: U2-OS cells; experiment: Colocalization of +36GFP fusions with lysosomal membrane (confocal microscopy); format: cell-based; conditions: 5 μM, 1 hr
Method: U-2 OS (ATCC) cells were cultured in DMEM supplemented with 10% (v/v) inactivated FBS (Corning), 2 mM glutamine, penicillin (100 IU/mL), and streptomycin (100 μg/mL) at 37° C. and 5% CO2. The glass-bottom coverslip chambers were pre-coated with 500 μg/mL of Matrigel (Corning). Transfection of LAMP1-HaloTagTM was performed using Lonza Nucleofector system according to the manufacturer's specifications. After overnight of recovery and expression, the cells expressing LAMP1-HaloTagTM were labeled with 100 nM JF646-HTL for 30 minutes and washed three times with pre-warmed DMEM medium. The final concentration of 5 μM+36GFP fusion proteins was incubated with the LAMP1-HaloTagTM expressing U-2 OS cells on a pre-coated coverslip for 1 hr. Cells were fixed with 4% paraformaldehyde for 20 min at room temperature (RT) and quenched/rinsed with PBS supplemented with 30 mM glycine. Then, the coverslips were mounted on FluoroSaveTM (Millipore). For pH measurement of the lysosome, LysoSensorTM Yellow/Blue DND-160 was incubated at 1 mg/mL overnight and washed twice prior to imaging (54). The final concentration of 5 μM protein was incubated with the LAMP1-HaloTag expressing U2-OS cells that were loaded with 1 mg/mL LysoSensorTM Yellow/Blue DND-160 for 1 hr. In separate chambers, LysoSensorTM Yellow/Blue DND-160 loaded cells were incubated with bafilomycin A1 (1 μM) and chloroquine (50 μM) for 1 hr as a control. For fixed cell confocal microscopy, a customized Nikon TiE inverted scope outfitted with a Yokogawa spinning-disk scan head (#CSU-X1) along with an Andor iXonTM EM-CCD camera (DU-897) with […] exposure time was used to collect 3D images using an SR Apo TIRF 100×1.49 oil-immersion objective. […] coefficients were calculated in 3D with JF646 signal (LAMP-HaloTag) and +36GFP signal (corresponding proteins) using Imaris software with thresholding. Zeiss 880 equipped with AiryScanTM was also used to obtain high resolution images using a Plan-Apochromatic 63×/1.4 oil DIC objective.

[7] = pH 7.4
Excerpt: For low-pH experiments involving circular dichroism (CD), small-angle X-ray scattering (SAXS), and size exclusion chromatography (SEC), Na2PO4-Citrate buffer was used to ensure that a single buffer system could be used that was stable over the entire pH range to be tested. Buffers were made using established ratios of stock solutions of 0.2 M Na2PO4 and 0.1 M Citrate; final pH was adjusted using hydrochloric acid (HCl) or sodium hydroxide (NaOH) if needed.
CD wavelength scans (260 to 195 nm) and temperature melts (25 to 95° C.) were measured using a JASCO™ J-1500 or an AVIV™ model 420 CD spectrometer. Temperature melts monitored absorption signal at 222 nm and were carried out at a heating rate of 4° C./min; protein samples were at 0.25 mg/mL in either phosphate buffered saline (PBS) pH 7.4 or Na2PO4-Citrate at indicated pH values (see Buffers systems for varying pH). Guanidinium chloride (GdmCl) titrations were all performed on an AVIV 420 spectrometer with an automated titration apparatus using either PBS pH 7.4 or Na2PO4-Citrate buffers at indicated pH at room temperature, monitoring helical signal at 222 nm, using a protein concentration of 0.025 mg/mL in a 1 cm cuvette with stir bar. Each titration consisted of at least 30 evenly distributed concentration points with one minute mixing time for each step. Titrant solution consisted of the same concentration of protein in the same buffer system plus GdmCl; GdmCl concentration of starting solutions was determined by reactive index.

[8] = biological target: the molecule itself; experiment: native mass spectrometry at 5 uM trimer
Method: Samples were buffer exchanged twice into 200 mM ammonium acetate (NH₄Ac; MilliporeSigma) using Micro Bio-Spin P-6 columns (Bio-Rad). […]

[9] = biological target: the molecule itself; experiment: native mass spectrometry at the indicated pH
Method: Samples were buffer exchanged twice into 200 mM ammonium acetate (NH₄Ac; MilliporeSigma) using Micro Bio-Spin P-6 columns (Bio-Rad). Protein concentrations were determined by UV absorbance using a Nanodrop 2000c spectrophotometer (Thermo Fisher Scientific) and diluted to make up a 10-fold stock solution (50 μM and 16.7 μM monomer and trimer concentration, respectively). 1 μL of this solution was mixed with 9 μL 200 mM NH₄Ac/50 mM triethylammonium acetate (TEAA; MilliporeSigma), adjusted with acetic acid (Fisher Scientific) to obtain the desired final pH and incubated on ice for 30 min.

[10] = biological target: T1, pRO-4 Chain B (heterodimer pRO-4), hexahistidine tag cleaved; experiment: SEC and native mass spectrometry; heterodimer
T1 construct: The tag was removed for all pH experiments
T1 chain: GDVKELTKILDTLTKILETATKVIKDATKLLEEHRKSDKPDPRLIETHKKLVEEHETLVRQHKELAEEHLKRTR

In the case of `CO/C1=C\C(C)=C\[C@@H](C)[C@@H](O)[C@@H](C)C/C(C)=C/C=C/[C@H](OC)[C@@H]([C@@H](C)[C@@H](O)[C@H](C)[C@@]2(O)C[C@@H](O)[C@H](C)[C@@H](C(C)C)O2)OC1=O` [Bafilomycin A], the “effect on lysosomal pH (known drugs)” value [1] is given as “known to neutralize lysosomal pH”.

In the case of `CCN(CC)CCCC(C)Nc1ccnc2cc(Cl)ccc12` (stereo not shown) [Chloroquine], the “effect on lysosomal pH (known drugs)” value [1] is given as “known to neutralize lysosomal pH”.

B1: pRO-1: designed homotrimer, SEQ ID NO: 13-14 (protein)
chain 1: MGSSHHHHHHSSGLVPRGSHMGTLKEVLERLEEVLRRHREVAREHQRWAREHEQWVRDDPNSAKWIAESTRWILETTDAISRTADVLAEAIRVLAESD
chain 2: GSHMGTLKEVLERLEEVLRRHREVAREHQRWAREHEQWVRDDPNSAKWIAESTRWILETTDAISRTADVLAEAIRVLAESD
With B1 the “oligomeric state at pH 7 / neutral pH” value [2] was “primarily dimeric” and the “oligomeric state by SEC” value [3] was “trimeric at high concentration”.

B2: pRO-2-noHis subunit (homotrimer lacking histidine networks) (designed binder)
chain: GSEYEIRKALEELKASTAELKRSTASLRASTEELKKNPSEDALVENNRLIVENNAIIVENNRIIAAVLELIVRAIK
notes: forms a homotrimer; Tag-free form
For B2, the “oligomeric state at pH 7 / neutral pH” value [2] was “assembled to the intended trimeric state”, the “pH response of oligomeric state (pH-induced disassembly)” value ([2]; pH ~7 to ~3) was “remained trimeric at low pH; also recorded: no significant pH response” and the “liposome disruption activity at pH 5” value [4] was “no detectable liposome activity”. For the same molecule, the “interaction with liposomes by cryo-EM” value [5] was “no interactions with liposomes at either pH; also recorded: does not interact with liposomes at either pH”, the “colocalization with lysosomal membranes” value [6] was “not observed in lysosomes” and the “folding stability by GdmCl denaturation” value [7] was “unaffected by change in pH”. B2: binds [8].

B3: pRO-2 I56V subunit (designed binder)
chain: GSEYEIRKALEELKAATAELKRATASLRAITEELKKNPSEDALVEHNRAIVEHNAIVVEHNRIIAAVLELIVRAIK
notes: forms a homotrimer; Tag-free form, and the entry already carries I56V
B3: binds [9].

B4: pRO-4 Chain A (heterodimer pRO-4) (designed binder)
chain: MDEEDHLKKLKTHLEKLERHLKLLEDHAKKLEDILKERPEDSAVKESIDELRRSIELVRESIEIFRQSVEEEE
B4: binds [10].
